The record followed here is publication PMC8270960, “Native flagellar MS ring is formed by 34 subunits with 23-fold and 11-fold subsymmetries” (Nature Communications, 2021).

B1: FliF of the native flagellar basal body (native MS ring) (natural protein)
chain: MSATASTATQPKPLEWLNRLRANPRIPLIVAGSAAVAIVVAMVLWAKTPDYRTLFSNLSDQDGGAIVAQLTQMNIPYRFANGSGAIEVPADKVHELRLRLAQQGLPKGGAVGFELLDQEKFGISQFSEQVNYQRALEGELARTIETLGPVKSARVHLAMPKPSLFVREQKSPSASVTVTLEPGRALDEGQISAVVHLVSSAVAGLPPGNVTLVDQSGHLLTQSNTSGRDLNDAQLKFANDVESRIQRRIEAILSPIVGNGNVHAQVTAQLDFANKEQTEEHYSPNGDASKATLRSRQLNISEQVGAGYPGGVPGALSNQPAPPNEAPIATPPTNQQNAQNTPQTSTSTNSNSAGPRSTQRNETSNYEVDRTIRHTKMNVGDIERLSVAVVVNYKTLADGKPLPLTADQMKQIEDLTREAMGFSDKRGDTLNVVNSPFSAVDNTGGELPFWQQQSFIDQLLAAGRWLLVLVVAWILWRKAVRPQLTRRVEEAKAAQEQAQVRQETEEAVEVRLSKDEQLQQRRANQRLGAEVMSQRIREMSDNDPRVVALVIRQWMSNDHE
notes: source: endogenous, basal body purified from Salmonella HK1003 (sucrose density gradient); copies: 34
B2: FliF(L253A), overexpressed in E. coli (natural protein)
chain: B1 chain with L253A
notes: source: E. coli, overexpressed, MS rings purified
B3: FliF(V266R), overexpressed in E. coli (natural protein)
chain: B1 chain with V266R
notes: as for B2
B4: FliF(I252R), overexpressed in E. coli (natural protein)
chain: B1 chain with I252R
notes: as for B2
B5: full-length Salmonella FliF (MS ring, dataset 2, from pKOT105) (natural protein)
chain: B1 chain
notes: also called FliF overexpressed from another construct; FliF ring dataset 2; source: E. coli BL21 (DE3) carrying pKOT105, MS ring purified from the membrane fraction (sucrose gradient, LMNG); copies: 34
B6: FliF(L253R), overexpressed in E. coli (natural protein)
chain: B1 chain with L253R
notes: as for B2
B7: FliF(I252A), overexpressed in E. coli (natural protein)
chain: B1 chain with I252A
notes: as for B2
B8: FliF(V266A), overexpressed in E. coli (natural protein)
chain: B1 chain with V266A
notes: as for B2
B9: full-length Salmonella FliF (MS ring, dataset 1, from pKOT112) (natural protein)
chain: B1 chain
notes: also called MS ring formed by full-length FliF; FliF ring dataset 1; source: E. coli BL21 (DE3) carrying pKOT112, MS ring purified from the membrane fraction (sucrose gradient, LMNG); copies: 34
B10: FliF_(1-503) (domain or fragment)
chain: MSATASTATQPKPLEWLNRLRANPRIPLIVAGSAAVAIVVAMVLWAKTPDYRTLFSNLSDQDGGAIVAQLTQMNIPYRFANGSGAIEVPADKVHELRLRLAQQGLPKGGAVGFELLDQEKFGISQFSEQVNYQRALEGELARTIETLGPVKSARVHLAMPKPSLFVREQKSPSASVTVTLEPGRALDEGQISAVVHLVSSAVAGLPPGNVTLVDQSGHLLTQSNTSGRDLNDAQLKFANDVESRIQRRIEAILSPIVGNGNVHAQVTAQLDFANKEQTEEHYSPNGDASKATLRSRQLNISEQVGAGYPGGVPGALSNQPAPPNEAPIATPPTNQQNAQNTPQTSTSTNSNSAGPRSTQRNETSNYEVDRTIRHTKMNVGDIERLSVAVVVNYKTLADGKPLPLTADQMKQIEDLTREAMGFSDKRGDTLNVVNSPFSAVDNTGGELPFWQQQSFIDQLLAAGRWLLVLVVAWILWRKAVRPQLTRRVEEAKAAQEQAQVRQE
notes: also called C-terminally-truncated FliF fragment with 57 residues truncated; copies: 33
B11: FliG of the C ring of the native basal body (wild-type, CCW motor) (natural protein)
chain: MSNLSGTDKSVILLMTIGEDRAAEVFKHLSTREVQALSTAMANVRQISNKQLTDVLSEFEQEAEQFAALNINANEYLRSVLVKALGEERASSLLEDILETRDTTSGIETLNFMEPQSAADLIRDEHPQIIATILVHLKRSQAADILALFDERLRHDVMLRIATFGGVQPAALAELTEVLNGLLDGQNLKRSKMGGVRTAAEIINLMKTQQEEAVITAVREFDGELAQKIIDEMFLFENLVDVDDRSIQRLLQEVDSESLLIALKGAEPPLREKFLRNMSQRAADILRDDLANRGPVRLSQVENEQKAILLIVRRLAETGEMVIGSGEDTYV
notes: source: endogenous, basal body purified from Salmonella HK1003 (sucrose density gradient)

Residue numbers refer to the chain shown, from its start. Numbers in names are those of the source. Where “and” joins values, the source holds several entries; their conditions need not be identical. Equal values may be shown once.

Series [1] concerns the target FliG ΔPAA of the C ring of the CW-locked basal body (Salmonella enterica serovar Typhimurium (in TM022)) (UniProt P0A1J9). The series can be described thus: cryo-EM structure; end-on view cryoEM images of the C ring of purified wild-type (CCW) and CW mutant basal bodies; rotational symmetry of single particles by autocorrelation and Fourier transformation (98 and 75 particles).

Series [2] concerns the molecule itself. In words: cryo-EM structure; 2D class averages of end-on views of the basal body (rivet) purified from Salmonella HK1003; rotational symmetry by autocorrelation and Fourier transformation; assembly formed in cells, purified as a whole.
Series [3] concerns the molecule itself. The series can be described thus: negative-stain EM; MS rings purified from E. coli cells overexpressing mutant variants of FliF, observed by negative staining EM.
Series [4] deals with the molecule itself. The series can be described thus: cryo-EM structure; MS ring of full-length FliF (dataset 2, pKOT105); 3D refinement with C1, C11 and C34 symmetry (12, 9.0 and 7.4 Å).
Series [5] concerns the molecule itself. In words: cryo-EM structure; MS ring of full-length FliF (dataset 1, pKOT112) in Buffer S with 0.05% LMNG; 2D classes and 3D refinement with C34 symmetry, 3.7 Å.
Series [6] deals with the molecule itself. The series can be described thus: cryo-EM structure; rings of FliF_(1-503) and FliF_(1-456) in Buffer S with 0.1% Triton-X100; 3D classification and reconstruction with C1 symmetry.
Series [7] deals with B1. The series can be described thus: cryo-EM structure; 2D class averages of end-on views of the basal body (rivet) purified from Salmonella HK1003; rotational symmetry by autocorrelation and Fourier transformation; assembly formed in cells, purified as a whole. The conditions noted are these: both partners purified.

“FliG ΔPAA of the C ring of the CW-locked basal body (from UniProt P0A1J9 1-331) (natural protein)”: the stoichiometry N in series [1] was 33 -fold to 36 -fold (2×) and 34 -fold.

Turning to B1, the “stoichiometry N” value in series [2] amounted to 34 subunits.

For B2, the binding result in series [3] is “binds”.

As for B3, the binding result in series [3] is “binds”.

Consider B4, for which the binding result in series [3] is reported as “binds”.

Regarding B5, the “stoichiometry N” value in series [4] is 34 subunits.

In the case of B6, the binding result in series [3] is given as “binds”.

On to B7, for which the binding result in series [3] was “binds”.

B8: the binding result in series [3] is given as “binds”.

For B9, the “stoichiometry N” value in series [5] is 34 subunits.

With B10, the “stoichiometry N” value in series [6] is 33 -fold.

As for B11, the binding result in series [7] is “binds”.

As usually defined, the stoichiometry N is a count of units in the complex or per binding partner.
